In PMC13649775 (Nature Communications, 2026):
Where no end group is shown, it is not given here.

B1: FAM-labeled Ku70 1-11 peptide (peptide)
peptide: {FAM}-MSGWESYYKTE
notes: Ku70, residues 1-11; The results call the modelled stretch 'Ku70 CTR', but the peptide is residues 1-11; also called Ku70 peptide; source: synthetic peptide (GenScript)
B2: FAM-labeled Artemis 486-496 peptide (peptide)
peptide: {FAM}-VPQWEVFFKRN
notes: Artemis, residues 486-496; also called Artemis peptide; source: synthetic peptide (GenScript)

Molecular target: T1, LigIV DBD (Met1-Ile240) (UniProt P49917 1-240)
T1 construct: source: E. coli Rosetta2 (DE3), purified (Ni-NTA, TEV, SEC); not shown: His tag, N-terminal, cleaved
T1 sequence (looked up): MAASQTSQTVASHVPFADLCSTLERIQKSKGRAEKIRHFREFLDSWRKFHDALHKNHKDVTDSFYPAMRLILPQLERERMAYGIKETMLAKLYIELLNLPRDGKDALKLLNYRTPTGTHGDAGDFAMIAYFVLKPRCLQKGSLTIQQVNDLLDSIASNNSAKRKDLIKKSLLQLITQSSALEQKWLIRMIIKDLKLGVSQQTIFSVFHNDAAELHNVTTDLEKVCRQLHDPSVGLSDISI
Test: fluorescence polarisation; 25 nM FAM-labeled peptide constant, LigIV DBD 5 nM–200 μM; 15 mM Tris pH 7.5, 65 mM NaCl, 0.7 mM βME; 20 min
Details: both partners purified

Binder	Kd
B1	29 to 30 µM
B2	1.5 to 4 µM
